The values that follow come from IntAct's records for PubMed 19716822.

The experiment addresses srk2e_arath SRK2E (UniProt Q940H6).

srk2e_arath SRK2E, sequence (Q940H6 whole entry): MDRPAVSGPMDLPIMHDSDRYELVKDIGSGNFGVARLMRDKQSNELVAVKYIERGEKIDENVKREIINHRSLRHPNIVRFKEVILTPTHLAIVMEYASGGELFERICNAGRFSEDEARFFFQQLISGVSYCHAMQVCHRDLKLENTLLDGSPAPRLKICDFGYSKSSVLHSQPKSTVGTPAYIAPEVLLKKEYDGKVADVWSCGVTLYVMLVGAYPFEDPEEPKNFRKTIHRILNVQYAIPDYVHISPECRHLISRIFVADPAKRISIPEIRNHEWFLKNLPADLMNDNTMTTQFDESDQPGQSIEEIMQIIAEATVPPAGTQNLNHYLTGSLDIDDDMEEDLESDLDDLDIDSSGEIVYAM

Turning to “Respiratory burst oxidase homolog protein F (Arabidopsis thaliana (Mouse-ear cress)), O48538 S174A”, the “effect of a mutation on the interaction” value is “decreasing interaction”.
